Experimental data as given in patent US20240400677A1 (ELECTRA THERAPEUTICS, published 2024).
Changes are numbered by the printed parent chain.

T1: cynomolgus monkey SIRPγ on CHO cells (cynomolgus monkey, UniProt Q9P1W8 29-386 (human entry))
T1 construct: also called Cyno SIRPγ CHO
T1 chain: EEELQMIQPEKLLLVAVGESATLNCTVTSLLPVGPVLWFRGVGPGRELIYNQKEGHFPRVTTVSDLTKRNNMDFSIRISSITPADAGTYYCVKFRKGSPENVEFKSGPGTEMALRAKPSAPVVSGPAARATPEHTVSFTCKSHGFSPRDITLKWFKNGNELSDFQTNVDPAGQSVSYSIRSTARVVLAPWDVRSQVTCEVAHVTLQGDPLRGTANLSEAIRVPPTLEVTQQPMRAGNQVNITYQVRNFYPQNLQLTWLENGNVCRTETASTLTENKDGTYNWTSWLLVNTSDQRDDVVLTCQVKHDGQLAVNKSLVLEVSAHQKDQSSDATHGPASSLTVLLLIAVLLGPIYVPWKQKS

T2: cynomolgus monkey SIRPα on CHO cells (cynomolgus monkey, UniProt A0A2K5VYQ9 31-507)
T2 construct: whole, on cells; also called Cyno SIRPα CHO
T2 sequence: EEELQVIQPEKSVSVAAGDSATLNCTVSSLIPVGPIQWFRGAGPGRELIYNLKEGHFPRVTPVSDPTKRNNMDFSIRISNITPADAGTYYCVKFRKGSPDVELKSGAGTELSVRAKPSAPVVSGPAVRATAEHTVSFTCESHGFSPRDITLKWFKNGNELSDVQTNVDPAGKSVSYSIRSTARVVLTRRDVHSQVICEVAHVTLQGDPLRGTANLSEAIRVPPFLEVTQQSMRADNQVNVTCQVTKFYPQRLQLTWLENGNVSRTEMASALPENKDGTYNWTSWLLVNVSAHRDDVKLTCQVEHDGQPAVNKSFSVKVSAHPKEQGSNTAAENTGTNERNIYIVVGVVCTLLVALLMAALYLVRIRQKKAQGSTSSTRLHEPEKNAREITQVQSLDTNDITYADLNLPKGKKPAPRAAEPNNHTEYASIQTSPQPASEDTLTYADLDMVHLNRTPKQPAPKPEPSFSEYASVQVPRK

B1: Antibody 16 (scFv, V domains shown)
VH: QVQLVQSGAEVKKPGASVKVSCKASGYTFTSYYMHWVRQAPGQGLEWMGWINPNSGNAGFAQKFQGRVTMTRDTSTSTVYMELSSLRSEDTAVYYCARGPVYSYGPFDYWGQGTLVTVSS
VL: DIQMTQSPSSLSASVGDRVTITCRASQGISTYLAWYQQKPGKAPKLLIYAASTLQSGVPSRFSGSGSGTDFTLTISSLQPEDFATYYCQQSHSAPITFGQGTKVEIK
notes: scFv in crude PPE, V5/myc-tagged
B2: Antibody 33 (scFv, V domains shown)
VH: QVQLVQSGAEVKKPGASVKVSCKASGYTFTSYYMHWVRQAPGQGLEWMGWMNPNSDNTGYAQKFQGRVTMTRDTSTSTVYMELSSLRSEDTAVYYCARVGVGYGYYYYGMDVWGQGTTVTVSS
VL: B1 VL with S26G, G28S, S30G, T31D, A34N, T53S, H92Y, A94T, I96W
notes: as for B1
B3: Antibody 9 (scFv, V domains shown)
VH: QVQLVQSGAEVKKPGASVKVSCKASGYSFSDYYMHWVRQAPGQGLEWMGWMSPNSGNTGYAQKFQGRVTMTRDTSTSTVYMELSSLRSEDTAVYYCARQREEYGHYYYGMDVWGQGTMVTVSS
VL: EIVMTQSPATLSVSPGERATLSCRASQSLGSTYLAWYQQKPGQAPRLLIYGASTRATGIPARFSGSGSGTEFTLTISSLQSEDFAVYYCQQYYSSPPTFGQGTKVEIK
notes: as for B1
B4: Antibody 29 (scFv, V domains shown)
VH: QVQLVQSGAEVKKPGASVKVSCKASGGTFSSYAISWVRQAPGQGLEWMGIINPSSSSTGYAQKFQGRVTMTRDTSTSTVYMELSSLRSEDTAVYYCARAGYYDSSGYYYSPYYGMDVWGQGTTVTVSS
VL: B3 VL with L29I, G30S, S31G, T32S, Y93G, S95F, P97F, Q101P, E106D
notes: as for B1
B5: Antibody 14 (scFv, V domains shown)
VH: QVQLVQSGAEVKKPGASVKVSCKASGYTFTSYYMHWVRQAPGQGLEWMGWVDPNNGDTGYAQKFQGRVTMTRDTSTSTVYMELSSLRSEDTAVYYCARDNWGSLDVWGKGTTVTVSS
VL: DIVMTQSPLSLPVTPGEPASISCRSSQSLLHSNGYNYLDWYLQKPGQSPQLLIYAASTLQSGVPDRFSGSGSGTDFTLKISRVEAEDVGVYYCMQGLQTLYSFGQGTKLEIK
notes: as for B1
B6: Antibody 34 (scFv, V domains shown)
VH: QVQLVQSGAEVKKPGASVKVSCKASGYTFSNYYMHWVRQAPGQGLEWMGWMNPNSGNTGYAQKFQGRVTMTRDTSTSTVYMELSSLRSEDTAVYYCARASMYSSSGFDYWGQGTLVTVSS
VL: B5 VL with A55L, L59R, Q60A, S61P, L97S, Q98H, T99W, L100P, Y101P, K108R
notes: as for B1
B7: Antibody 21 (scFv, V domains shown)
VH: EVQLLESGGGLVQPGGSLRLSCAASGFTLGSYWMHWVRQAPGKGLEWVSLISWDGGSTYYADSVKGRFTISRDNSKNTLYLQMNSLRAEDTAVYYCAKGPWVGYSGYDLNYYYYGMDVWGQGTTVTVSS
VL: DIQMTQSPSSLSASVGDRVTITCRASQDIRRALAWYQQKPGKAPKLLIYAASSLQSGVPSRFSGSGSGTDFTLTISSLQPEDFATYYCLQHNSYPPTFGQGTKLEIK
notes: as for B1
B8: Antibody 32 (scFv, V domains shown)
VH: QVQLVQSGAEVKKPGASVKVSCKASGYTFTSYYMYWVRQAPGQGLEWMGWINPNSGNTGYAQKFQGRVTMTRDTSTSTVYMELSSLRSEDTAVYYCAKDRRRGVGLAAAGTSAFDIWGQGTMVTVSS
VL: B1 VL with G28S, T31N, Y32W, T53S, H92Y, A94T, I96Y, V104L
notes: as for B1
B9: Antibody 24 (scFv, V domains shown)
VH: QVQLVQSGAEVKKPGASVKVSCKASGYTFTGYYMHWVRQAPGQGLEWMGIINPSGGSTNYAQKFQGRVTMTRDTSTSTVYMELSSLRSEDTAVYYCARGPIGYGMDVWGQGTLVTVSS
VL: B7 VL with D28G, R30G, R31N, A32D, A34G, S53N, Q55E, S56T, N92H, P96F
notes: as for B1
B10: Antibody 27 (scFv, V domains shown)
VH: QVQLVQSGAEVKKPGASVKVSCKASGYTFTSHDINWVRQAPGQGLEWMGWMNANNGNAGYAQKFQGRVTMTRDTSTSTVYMELSSLRSEDTAVYYCAKDLSPSSSWSTYYYYYGMDVWGQGTMVTVSS
VL: B1 VL with G28S, T31N, Y32L, T53S, H92Y, A94T, I96Y, V104L
notes: as for B1
B11: Antibody 20 (scFv, V domains shown)
VH: QVQLVQSGAEVKKPGASVKVSCKASGYTFTSYDINWVRQAPGQGLEWMGWMNPNSGNTGYAQKFQGRVTMTRDTSTSTVYMELSSLRSEDTAVYYCARESYAYCSSTSCYDAFDIWGQGTMVTVSS
VL: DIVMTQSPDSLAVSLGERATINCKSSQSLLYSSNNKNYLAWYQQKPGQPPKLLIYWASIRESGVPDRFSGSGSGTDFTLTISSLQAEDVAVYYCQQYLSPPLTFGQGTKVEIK
notes: as for B1
B12: Antibody 35 (scFv, V domains shown)
VH: QVQLVQSGAEVKKPGASVKVSCKASGYTFTSYYIHWVRQAPGQGLEWMGTINPSGGSTSYAQKFQGRVTMTRDTSTSTVYMELSSLRSEDTAVYYCARETSRWLRDYYYGMDVWGQGTTVTVSS
VL: DIVMTQSPLSLPVTPGEPASISCRSSQSLLHSNGYNYLDWYLQKPGQSPQLLIYDASSLESGVPDRFSGSGSGTDFTLKISRVEAEDVGVYYCMQGTHWPLTFGGGTKVEIK
notes: as for B1

Each binder was assayed against T3, human SIRPγ on stably transfected CHO cells (human, UniProt Q9P1W8 29-387) (assay: flow cytometry, myc-scFv PPE).
T3 construct: also called Human SIRPγ CHO
Procedure: (§1) Selected antibodies were tested for binding to stably transfected human SIRPγ, SIRPαV1, or SIRPβ1 (co-transfected with DAP12) Chinese hamster ovary (CHO) cells via flow cytometry. A titration of select antibodies was added to the cells and detected using a fluorescently labelled secondary anti-rat IgG antibody or anti-human IgG antibody. Graphs depict the median fluorescence intensity (MFI) at each concentration. FIGS. 5A and 5G show the binding curves of select antibodies to human SIRPγ, cynomolgus monkey SIRPγ, human SIRPα, cynomolgus monkey SIRPα, human SIRPβ1, or cynomolgus monkey SIRPβl-expressing CHO cells detected using an anti-rat IgG antibody. FIGS. 5B-5F and 5H-5L show the binding curves of select antibodies to human SIRPγ, cynomolgus monkey SIRPγ, human SIRPα, cynomolgus monkey SIRPα, human SIRPβ1, or cynomolgus monkey SIRPβ1-expressing CHO cells detected using an anti-human IgG antibody. […] For select antibodies, each myc-tagged SIRPγ scFv antibody as crude PPE was incubated with each of the SIRP-expressing cell lines stated above along with the parental CHO-K1 cell line. […] Fold change value <2.0 is considered a non-binder.

T3 sequence (Q9P1W8 29-387 limits assumed): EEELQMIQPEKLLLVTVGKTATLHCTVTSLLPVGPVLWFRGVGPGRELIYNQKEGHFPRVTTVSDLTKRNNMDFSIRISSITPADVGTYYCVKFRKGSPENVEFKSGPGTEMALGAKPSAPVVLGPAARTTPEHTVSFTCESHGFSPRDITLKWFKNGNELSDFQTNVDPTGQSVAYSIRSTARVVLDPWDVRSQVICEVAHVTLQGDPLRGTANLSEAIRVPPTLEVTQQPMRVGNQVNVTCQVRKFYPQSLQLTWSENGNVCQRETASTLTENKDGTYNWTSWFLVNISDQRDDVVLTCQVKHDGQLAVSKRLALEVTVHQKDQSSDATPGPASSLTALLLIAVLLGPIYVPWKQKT

| MFI fold change over parental CHO [fold] | Binder |
| --- | --- |
| 33 | B1 |
| 20 | B2 |
| 10.4 | B3 |
| 11.4 | B4 |
| 19.6 | B5 |
| 18.7 | B6 |
| 51.4 | B7 |
| 10.2 | B8 |
| 11.1 | B9 |
| 23.2 | B10 |
| 8.87 | B11 |
| 18.3 | B12 |

Target: T1, cynomolgus monkey SIRPγ on CHO cells
Assay: flow cytometry, myc-scFv PPE
Procedure: as §1

| MFI fold change over parental CHO [fold] | Binder |
| --- | --- |
| 16.3 | B1 |
| 8.02 | B2 |
| 6.87 | B3 |
| 13 | B4 |
| 18 | B5 |
| 12 | B6 |
| 96.1 | B7 |
| 9.63 | B8 |
| 9.85 | B9 |
| 5.81 | B10 |
| 10.5 | B11 |
| 12.8 | B12 |

The binders below were run against T4, human SIRPγ-His monomer protein (human, UniProt Q9P1W8 29-360) (assay: BLI Octet, V5-scFv PPE captured, SIRP-His 500 nM).
T4 construct: also called hSIRPγ
T4 sequence (Q9P1W8 29-360 limits assumed): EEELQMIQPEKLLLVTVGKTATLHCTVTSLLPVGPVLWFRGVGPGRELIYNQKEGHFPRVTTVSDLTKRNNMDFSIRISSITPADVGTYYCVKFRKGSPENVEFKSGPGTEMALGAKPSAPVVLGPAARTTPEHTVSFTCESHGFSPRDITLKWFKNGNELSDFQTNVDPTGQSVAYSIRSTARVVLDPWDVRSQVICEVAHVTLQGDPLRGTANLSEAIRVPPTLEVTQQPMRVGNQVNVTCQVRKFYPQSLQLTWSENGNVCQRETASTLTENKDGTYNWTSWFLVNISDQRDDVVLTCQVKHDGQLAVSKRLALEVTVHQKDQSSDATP

| kdis [s⁻¹] | Binder |
| --- | --- |
| 0.001 to 0.01 | B2 |
| 0.001 to 0.01 | B3 |
| 0.001 to 0.01 | B4 |
| 0.001 to 0.01 | B5 |
| 0.001 to 0.01 | B6 |
| 0.001 to 0.01 | B7 |
| < 0.001 | B8 |
| > 0.01 | B9 |
| 0.001 to 0.01 | B10 |
| < 0.001 | B11 |
| 0.001 to 0.01 | B12 |

These binders were tested against T5, human SIRPβ1 on CHO cells (co-transfected with DAP12) (human, UniProt O00241 30-398) (assay: flow cytometry).
T5 construct: whole, on cells; co-transfected with DAP12; also called Human SIRPβ1 CHO
T5 sequence (O00241 30-398): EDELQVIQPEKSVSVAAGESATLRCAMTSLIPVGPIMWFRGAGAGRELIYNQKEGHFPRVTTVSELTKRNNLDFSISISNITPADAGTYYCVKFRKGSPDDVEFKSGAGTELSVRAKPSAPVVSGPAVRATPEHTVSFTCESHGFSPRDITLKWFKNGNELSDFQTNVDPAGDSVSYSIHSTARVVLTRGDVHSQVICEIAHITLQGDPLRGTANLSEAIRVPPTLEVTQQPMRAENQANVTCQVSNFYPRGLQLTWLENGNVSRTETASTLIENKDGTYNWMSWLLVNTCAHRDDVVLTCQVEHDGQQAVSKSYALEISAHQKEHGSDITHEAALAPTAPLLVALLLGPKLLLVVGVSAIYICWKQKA

| binding result | Binder |
| --- | --- |
| no binding (tested: fold change <2.0) | B1 |
| no binding (tested: fold change <2.0) | B2 |
| no binding (tested: fold change <2.0) | B3 |
| no binding (tested: fold change <2.0) | B4 |
| no binding (tested: fold change <2.0) | B5 |
| no binding (tested: fold change <2.0) | B6 |
| no binding (tested: fold change <2.0) | B7 |
| no binding (tested: fold change <2.0) | B8 |
| no binding (tested: fold change <2.0) | B9 |
| no binding (tested: fold change <2.0) | B10 |
| no binding (tested: fold change <2.0) | B11 |

Each binder was assayed against T2, cynomolgus monkey SIRPα on CHO cells (assay: flow cytometry).

| binding result | Binder |
| --- | --- |
| no binding (tested: fold change <2.0) | B1 |
| no binding (tested: fold change <2.0) | B2 |
| no binding (tested: fold change <2.0) | B3 |
| no binding (tested: fold change <2.0) | B4 |
| no binding (tested: fold change <2.0) | B6 |
| no binding (tested: fold change <2.0) | B7 |
| no binding (tested: fold change <2.0) | B8 |
| no binding (tested: fold change <2.0) | B9 |
| no binding (tested: fold change <2.0) | B10 |
| no binding (tested: fold change <2.0) | B11 |
| no binding (tested: fold change <2.0) | B12 |
